Reference: publication PMC3069065
Where no end group is shown, it is not given here. The star is where a group is joined. Biotin = O=C1N[C@H]2[C@H](CS[C@H]2CCCCC(=O)*)N1

Molecular target: human vitamin D nuclear receptor ligand-binding domain, hexahistidine-tagged (6xHis-VDR-LBD) (human)
Assay: AlphaScreen or HTRF; 100 nM 6xHis-VDR-LBD on Ni2+-chelate acceptor beads, 20 nM biotinylated TIF2-3 peptide on streptavidin donor beads; increasing concentrations of 1α,25(OH)2D3 or 1α,25(OH)2-3-epi-D3 (1% DMSO); 50 mM MOPS pH 7.4, 50 mM NaF, 50 mM CHAPS, 100 µg/ml BSA

- EC50 of the ligand 1α,25(OH)2-3-epi-D3 for induced recruitment of the peptide: 2.5 nM
- EC50 of the ligand 1α,25(OH)2D3 for induced recruitment of the peptide: 1.2 nM
Binder: Biotin-QEPVSPKKKENALLRYLLDKDDTKD [human TIF2-3 biotinylated peptide (TIF2 coactivator peptide bearing the 3rd LXXLL motif)]
